T1: P2-AA-12HGe-A
T1 chain: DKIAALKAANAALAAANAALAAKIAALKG

T2: P2-AA-12HGe-D
T2 chain: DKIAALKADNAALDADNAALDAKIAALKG

T3: P2-AA-12HGe-E
T3 chain: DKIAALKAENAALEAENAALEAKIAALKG

T4: P2-AA-12HGe-H
T4 chain: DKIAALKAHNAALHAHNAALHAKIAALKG

T5: P2-AA-12HGe-M
T5 chain: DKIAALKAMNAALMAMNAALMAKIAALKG

T6: P2-AA-12HGe-Q
T6 chain: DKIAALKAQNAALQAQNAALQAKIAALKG

T7: P2-AA-12HGe-R
T7 chain: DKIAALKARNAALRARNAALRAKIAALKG

T8: P2-AA-12HGe-S
T8 chain: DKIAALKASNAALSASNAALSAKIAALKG

T9: P2-AA-12HGe-T
T9 chain: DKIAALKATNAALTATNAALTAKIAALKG

T10: P2-AA-12HGe-W
T10 chain: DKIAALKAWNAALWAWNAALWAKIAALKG

T11: P2-AA
T11 chain: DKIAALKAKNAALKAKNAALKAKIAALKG


Target: T1, P2-AA-12HGe-A
Experiment: two-hybrid library CCmax;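 also: natural log of median RNA to DNA barcode read ratio; higher means stronger binding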
Settings: mean of both orientations

interaction score	Binder
1.6	DEIAALEAANAALAAANAALAAEIAALEG [P1-AA-12HGe-A]
1.71	DEIAALEAMNAALMAMNAALMAEIAALEG [P1-AA-12HGe-M]
0.105	DEIAALEAHNAALHAHNAALHAEIAALEG [P1-AA-12HGe-H]
1.6	DEIAALEAKNAALKAKNAALKAEIAALEG [P1-AA-12HGe-K]
-0.678	DEIAALEASNAALSASNAALSAEIAALEG [P1-AA-12HGe-S]
-0.289	DEIAALEAYNAALYAYNAALYAEIAALEG [P1-AA-12HGe-Y]

Target: T2, P2-AA-12HGe-D
Experiment: two-hybrid library CCmax;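 also: natural log of median RNA to DNA barcode read ratio; higher means stronger binding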
Settings: not given

interaction score	Binder
-1.82	DEIAALEASNAALSASNAALSAEIAALEG [P1-AA-12HGe-S]

Same assay, conditions: mean of both orientations

interaction score	Binder
-1.64	DEIAALEAANAALAAANAALAAEIAALEG [P1-AA-12HGe-A]
-1.52	DEIAALEAMNAALMAMNAALMAEIAALEG [P1-AA-12HGe-M]
-1.6	DEIAALEAHNAALHAHNAALHAEIAALEG [P1-AA-12HGe-H]
0.189	DEIAALEAKNAALKAKNAALKAEIAALEG [P1-AA-12HGe-K]
-1.65	DEIAALEAYNAALYAYNAALYAEIAALEG [P1-AA-12HGe-Y]

Target: T3, P2-AA-12HGe-E
Experiment: two-hybrid library CCmax;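 also: natural log of median RNA to DNA barcode read ratio; higher means stronger binding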
Settings: mean of both orientations

interaction score	Binder
1.62	DEIAALEAANAALAAANAALAAEIAALEG [P1-AA-12HGe-A]
2.2	DEIAALEAMNAALMAMNAALMAEIAALEG [P1-AA-12HGe-M]
2	DEIAALEAHNAALHAHNAALHAEIAALEG [P1-AA-12HGe-H]
2.31	DEIAALEAKNAALKAKNAALKAEIAALEG [P1-AA-12HGe-K]
0.07	DEIAALEASNAALSASNAALSAEIAALEG [P1-AA-12HGe-S]
2.36	DEIAALEAYNAALYAYNAALYAEIAALEG [P1-AA-12HGe-Y]

Target: T4, P2-AA-12HGe-H
Experiment: two-hybrid library CCmax;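 also: natural log of median RNA to DNA barcode read ratio; higher means stronger binding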
Settings: mean of both orientations

interaction score	Binder
0.332	DEIAALEAANAALAAANAALAAEIAALEG [P1-AA-12HGe-A]
0.866	DEIAALEAMNAALMAMNAALMAEIAALEG [P1-AA-12HGe-M]
-1.82	DEIAALEAHNAALHAHNAALHAEIAALEG [P1-AA-12HGe-H]
-1.62	DEIAALEAKNAALKAKNAALKAEIAALEG [P1-AA-12HGe-K]
-1.82	DEIAALEASNAALSASNAALSAEIAALEG [P1-AA-12HGe-S]
-1.21	DEIAALEAYNAALYAYNAALYAEIAALEG [P1-AA-12HGe-Y]

Target: T5, P2-AA-12HGe-M
Experiment: two-hybrid library CCmax;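 also: natural log of median RNA to DNA barcode read ratio; higher means stronger binding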
Settings: mean of both orientations

interaction score	Binder
1.4	DEIAALEAANAALAAANAALAAEIAALEG [P1-AA-12HGe-A]
1.82	DEIAALEAMNAALMAMNAALMAEIAALEG [P1-AA-12HGe-M]
-0.622	DEIAALEAHNAALHAHNAALHAEIAALEG [P1-AA-12HGe-H]
0.464	DEIAALEAKNAALKAKNAALKAEIAALEG [P1-AA-12HGe-K]
-0.332	DEIAALEASNAALSASNAALSAEIAALEG [P1-AA-12HGe-S]
1.77	DEIAALEAYNAALYAYNAALYAEIAALEG [P1-AA-12HGe-Y]

Target: T6, P2-AA-12HGe-Q
Experiment: two-hybrid library CCmax;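 also: natural log of median RNA to DNA barcode read ratio; higher means stronger binding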
Settings: mean of both orientations

interaction score	Binder
1.96	DEIAALEAANAALAAANAALAAEIAALEG [P1-AA-12HGe-A]
2.16	DEIAALEAMNAALMAMNAALMAEIAALEG [P1-AA-12HGe-M]
0.16	DEIAALEAHNAALHAHNAALHAEIAALEG [P1-AA-12HGe-H]
1.06	DEIAALEAKNAALKAKNAALKAEIAALEG [P1-AA-12HGe-K]
0.702	DEIAALEASNAALSASNAALSAEIAALEG [P1-AA-12HGe-S]
0.637	DEIAALEAYNAALYAYNAALYAEIAALEG [P1-AA-12HGe-Y]

Target: T7, P2-AA-12HGe-R
Experiment: two-hybrid library CCmax
Settings: mean of both orientations

interaction score	Binder
0.662	DEIAALEAANAALAAANAALAAEIAALEG [P1-AA-12HGe-A]
1.45	DEIAALEAMNAALMAMNAALMAEIAALEG [P1-AA-12HGe-M]
-1.54	DEIAALEAHNAALHAHNAALHAEIAALEG [P1-AA-12HGe-H]
-1.01	DEIAALEAKNAALKAKNAALKAEIAALEG [P1-AA-12HGe-K]
1	DEIAALEASNAALSASNAALSAEIAALEG [P1-AA-12HGe-S]
-0.521	DEIAALEAYNAALYAYNAALYAEIAALEG [P1-AA-12HGe-Y]

Target: T8, P2-AA-12HGe-S
Experiment: two-hybrid library CCmax
Settings: not given

interaction score	Binder
-0.384	DEIAALEAANAALAAANAALAAEIAALEG [P1-AA-12HGe-A]

Same assay, conditions: mean of both orientations

interaction score	Binder
1.02	DEIAALEAMNAALMAMNAALMAEIAALEG [P1-AA-12HGe-M]
-1.37	DEIAALEAHNAALHAHNAALHAEIAALEG [P1-AA-12HGe-H]
0.655	DEIAALEAKNAALKAKNAALKAEIAALEG [P1-AA-12HGe-K]
-1.39	DEIAALEASNAALSASNAALSAEIAALEG [P1-AA-12HGe-S]
-1.06	DEIAALEAYNAALYAYNAALYAEIAALEG [P1-AA-12HGe-Y]

Target: T9, P2-AA-12HGe-T
Experiment: two-hybrid library CCmax
Settings: mean of both orientations

interaction score	Binder
1.71	DEIAALEAANAALAAANAALAAEIAALEG [P1-AA-12HGe-A]
1.77	DEIAALEAMNAALMAMNAALMAEIAALEG [P1-AA-12HGe-M]
-1.51	DEIAALEAHNAALHAHNAALHAEIAALEG [P1-AA-12HGe-H]
-0.493	DEIAALEAKNAALKAKNAALKAEIAALEG [P1-AA-12HGe-K]
-1.11	DEIAALEASNAALSASNAALSAEIAALEG [P1-AA-12HGe-S]
-0.661	DEIAALEAYNAALYAYNAALYAEIAALEG [P1-AA-12HGe-Y]

Target: T10, P2-AA-12HGe-W
Experiment: two-hybrid library CCmax
Settings: mean of both orientations

interaction score	Binder
0.0222	DEIAALEAANAALAAANAALAAEIAALEG [P1-AA-12HGe-A]
0.93	DEIAALEAMNAALMAMNAALMAEIAALEG [P1-AA-12HGe-M]
-1.45	DEIAALEAHNAALHAHNAALHAEIAALEG [P1-AA-12HGe-H]
-2.11	DEIAALEAKNAALKAKNAALKAEIAALEG [P1-AA-12HGe-K]
-1.58	DEIAALEASNAALSASNAALSAEIAALEG [P1-AA-12HGe-S]
-0.349	DEIAALEAYNAALYAYNAALYAEIAALEG [P1-AA-12HGe-Y]

Target: T11, P2-AA
Experiment: two-hybrid library CCmax
Settings: mean of both orientations

interaction score	Binder
1.49	DEIAALEAANAALAAANAALAAEIAALEG [P1-AA-12HGe-A]
1.39	DEIAALEAMNAALMAMNAALMAEIAALEG [P1-AA-12HGe-M]
-1.14	DEIAALEAHNAALHAHNAALHAEIAALEG [P1-AA-12HGe-H]
-0.289	DEIAALEAKNAALKAKNAALKAEIAALEG [P1-AA-12HGe-K]
0.744	DEIAALEASNAALSASNAALSAEIAALEG [P1-AA-12HGe-S]
-0.194	DEIAALEAYNAALYAYNAALYAEIAALEG [P1-AA-12HGe-Y]

From article PMC10397247
